Experiments:
[1] = molecular target: T1, Cas3W406A (Escherichia coli K-12 MG1655, UniProt P38036 1-888, W406A); assay: EMSA; not more stable or efficient than wild type; EMSA: 20 nM fork DNA, 50 mM Tris-HCl pH 7.5, 100 mM NaCl, 0.1 mg/mL BSA, 20 mM DTT, room temperature, 1 h; details: protein: recombinant; tags: (His)6-MBP or His6 (pIIB39 is the His6 pAH4 version); label: 5'-Cy5 on strand 1 (MW12); fork 1:2; as printed strand 1 nt 2-25 pair with strand 2 nt 27-50
T1 sequence: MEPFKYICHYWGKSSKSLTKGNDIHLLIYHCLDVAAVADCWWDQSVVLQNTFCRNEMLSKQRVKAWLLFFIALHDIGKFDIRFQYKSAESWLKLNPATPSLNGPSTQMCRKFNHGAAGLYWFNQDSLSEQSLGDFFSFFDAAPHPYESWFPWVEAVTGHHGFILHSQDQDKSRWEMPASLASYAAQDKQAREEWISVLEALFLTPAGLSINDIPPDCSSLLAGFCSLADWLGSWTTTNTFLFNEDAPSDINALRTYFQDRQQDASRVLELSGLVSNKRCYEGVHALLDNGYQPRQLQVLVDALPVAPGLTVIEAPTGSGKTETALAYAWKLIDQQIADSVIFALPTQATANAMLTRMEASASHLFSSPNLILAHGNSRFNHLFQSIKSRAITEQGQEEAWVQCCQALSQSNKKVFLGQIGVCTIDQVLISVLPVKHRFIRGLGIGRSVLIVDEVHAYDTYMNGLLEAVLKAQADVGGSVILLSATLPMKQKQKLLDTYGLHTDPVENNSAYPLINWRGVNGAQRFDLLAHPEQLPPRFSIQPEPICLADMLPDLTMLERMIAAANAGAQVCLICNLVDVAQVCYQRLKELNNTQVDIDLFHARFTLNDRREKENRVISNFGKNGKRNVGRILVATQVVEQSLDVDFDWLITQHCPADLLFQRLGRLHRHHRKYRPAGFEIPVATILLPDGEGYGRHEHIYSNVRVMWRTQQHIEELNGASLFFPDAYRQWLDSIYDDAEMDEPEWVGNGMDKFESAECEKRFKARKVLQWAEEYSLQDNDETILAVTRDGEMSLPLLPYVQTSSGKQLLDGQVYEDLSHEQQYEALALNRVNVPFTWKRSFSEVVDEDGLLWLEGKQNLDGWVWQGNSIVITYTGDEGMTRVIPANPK

[2] = molecular target: T2, Cas3 wild type (Escherichia coli K-12 MG1655, UniProt P38036 1-888); assay: EMSA; EMSA: 20 nM fork DNA, 50 mM Tris-HCl pH 7.5, 100 mM NaCl, 0.1 mg/mL BSA, 20 mM DTT, room temperature, 1 h; details: protein: recombinant; tags: (His)6-MBP N-terminal (pCas3); a His6-only construct (pAH4) also exists; label: 5'-Cy5 on strand 1 (MW12); fork 1:2; as printed strand 1 nt 2-25 pair with strand 2 nt 27-50
T2 sequence: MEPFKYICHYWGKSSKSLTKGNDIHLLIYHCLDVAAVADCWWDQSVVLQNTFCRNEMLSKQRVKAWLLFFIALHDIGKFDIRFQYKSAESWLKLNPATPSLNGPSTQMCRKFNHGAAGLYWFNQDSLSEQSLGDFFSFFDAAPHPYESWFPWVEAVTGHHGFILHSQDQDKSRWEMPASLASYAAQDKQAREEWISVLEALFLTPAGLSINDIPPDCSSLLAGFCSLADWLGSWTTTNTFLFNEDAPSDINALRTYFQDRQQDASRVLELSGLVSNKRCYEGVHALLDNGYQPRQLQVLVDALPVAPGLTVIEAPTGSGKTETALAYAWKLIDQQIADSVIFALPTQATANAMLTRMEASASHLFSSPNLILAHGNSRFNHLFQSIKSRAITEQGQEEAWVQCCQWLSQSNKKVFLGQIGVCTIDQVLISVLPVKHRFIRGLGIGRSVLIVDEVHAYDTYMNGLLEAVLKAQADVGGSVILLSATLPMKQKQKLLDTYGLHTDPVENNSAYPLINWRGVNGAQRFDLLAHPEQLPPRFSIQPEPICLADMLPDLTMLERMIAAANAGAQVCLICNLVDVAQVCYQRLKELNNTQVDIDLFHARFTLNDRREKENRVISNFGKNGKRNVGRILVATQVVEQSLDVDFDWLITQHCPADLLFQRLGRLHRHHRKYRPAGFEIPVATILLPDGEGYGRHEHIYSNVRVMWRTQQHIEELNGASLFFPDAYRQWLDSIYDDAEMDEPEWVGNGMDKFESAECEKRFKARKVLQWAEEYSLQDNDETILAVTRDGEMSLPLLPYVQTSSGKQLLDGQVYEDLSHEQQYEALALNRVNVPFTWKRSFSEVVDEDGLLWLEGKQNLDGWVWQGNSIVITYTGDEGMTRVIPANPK

B1: DNA fork MW12/MW14 (mixed)
DNA 1: GTCGGATCCTCTAGACAGCTCCATGATCACTGGCACTGGTAGAATTCGGC
DNA 2: CAACGTCATAGACGATTACATTGCTACATGGAGCTGTCTAGAGGATCCGA
B1: binds [1]; binds [2].

Source: paper PMC8001533, “A Tryptophan ‘Gate’ in the CRISPR-Cas3 Nuclease Controls ssDNA Entry into the Nuclease Site, That When Removed Results in Nuclease Hyperactivity”
